The series relates to C=CC/C(=N/OS(=O)(=O)O)S[C@@H]1O[C@H](CO)[C@@H](O)[C@H](O)[C@H]1O. The series can be described thus: Myrosinase activity assay (glucose release from sinigrin hydrolysis), TGG1. It counts as biochemical, Arabidopsis thaliana. Here is the method:
Screening for improved β-thioglucosidase. The activity and stability of myrosinase, a β-thioglucosidase that hydrolyzes glucosinolate to sulforaphane, varies at differing pH and temperature; in a preferred embodiment the selected enzyme needs to function under physiological colorectal conditions. The healthy colon pH averages 6.6, while it is 7.0 and 6.7 in patients with adenoma and carcinoma, respectively. In addition, the temperature of the human intestinal tract ranges from 36° C. to 40° C. depending on the individual's metabolic state. In the illustrative example five plant-derived myrosinase orthologues with minimal glycosylation sites and the absence of the co-factor-binding sites using the BLAST search and the Enzyme Function Initiative-Enzyme Similarity Tool (EFI-EST), are compared to the well-characterized myrosinases from Brevicoryne brassicae (BMY1) and Arabidopsis thaliana (TGG1) (FIG. 2a and FIG. 7).
Gene cloning, protein expression and purification. Myrosinase genes are optimized for E. coli expression and cloned into the pET28b expression vector. The plasmids are transformed into E. coli BL21 (DE3) cultured in lysogeny broth (LB) (BD, Le Pont de Claix, France) at 37° C., 225 rpm to OD600 0.6 followed by 0.5 mM isopropyl β-D-1-thiogalactopyranoside (IPTG) induction at 16° C., 180 rpm for 16 hours. Cells are harvested, resuspended in lysis buffer (50 mM Tris-Cl, 300 mM NaCl, 10% glycerol, 1 mM dithiothreitol [DTT], pH 8.0) and lysed using Emulsiflex C-3 (Avestin). Expressed myrosinases are purified by IMAC Ni-NTA purification followed by Hi-Load Superdex 200 size exclusion column chromatography (GE, Uppsala, Sweden). The purified protein is concentrated and stored at −80° C. Pilot scale protein purification and enzymatic assay is conducted.
Myrosinase screening assay. The enzymatic reaction is measured for the release of glucose resulting from sinigrin hydrolysis. The reaction is conducted in sodium phosphate-buffered solution supplied in the Amplex® Red Glucose/Glucose Oxidase Assay Kit (Thermo Fisher Scientific, Geel, Belgium). The reaction buffer is prepared at different pH values (6.0, 6.5, 7.4 and 8.0) and at different reaction temperatures (34° C., 37° C., and 40° C.). The reaction is prepared using 0.1 μM purified myrosinase added to 1× Amplex® Red Glucose Assay reaction mixture and was kick-started with the corresponding concentration of sinigrin. The reaction can be measured at 560 nm absorbance and fluorescence (λex=540 nm, λem=590 nm) using a Synergy H1 Multi-Mode microtiter plate reader (BioTek®, Winooski, USA). The reaction initial velocity (VO) is determined and fitted into a Michaelis-Menten curve. Vmax and KM are determined by fitting into the Michaelis-Menten equation (Eq. 1) using GraphPad Prism Software. ^v=Vmax*[Sinigrin]/(KM+[Sinigrin]) (Eq.1)
Table S1|Myrosinase activity assay screening under various pH and temperature conditions (n=3 independent experiments, each measurement performed in triplicates; mean[…].).

For the substance “Arabidopsis thaliana myrosinase TGG1 (Arabidopsis thaliana)”, the Michaelis-Menten constant (Km) runs as follows: (other: pH 6.0, 37° C., pH 6.0, 37.0 °C) 361 ± 11 µM; (other: pH 6.5, 37° C., pH 6.5, 37.0 °C) 198 ± 20 µM; (other: pH 7.4, 34° C., pH 7.4, 34.0 °C) 78 ± 8 µM; (other: pH 7.4, 37° C., pH 7.4, 37.0 °C) 71 ± 3 µM; (other: pH 7.4, 40° C., pH 7.4, 40.0 °C) 88 ± 9 µM; (other: pH 8.0, 37° C., pH 8.0, 37.0 °C) 137 ± 69 µM.

One may read the Km as the concentration of substrate that gives half-maximal velocity.

The record behind these values is patent US11925667B2, “Engineered therapeutic probiotic system and method” (priority 2018, dated 2024).
